{"source": "patent US6369030", "about": "(ROCKFELLER UNIVERSITY, dated 2002)", "binders": {"B1": {"name": "H3-CoA-7 (peptide)", "peptide": "Ac-GGKAPRK-NH2", "modifications": "also: further groups not given here"}}, "key": {"[1]": {"target": "p300 histone acetyltransferase (full length, purified recombinant) (UniProt Q09472 2-2414, limits assumed)", "sequence (Q09472 2-2414 limits assumed)": "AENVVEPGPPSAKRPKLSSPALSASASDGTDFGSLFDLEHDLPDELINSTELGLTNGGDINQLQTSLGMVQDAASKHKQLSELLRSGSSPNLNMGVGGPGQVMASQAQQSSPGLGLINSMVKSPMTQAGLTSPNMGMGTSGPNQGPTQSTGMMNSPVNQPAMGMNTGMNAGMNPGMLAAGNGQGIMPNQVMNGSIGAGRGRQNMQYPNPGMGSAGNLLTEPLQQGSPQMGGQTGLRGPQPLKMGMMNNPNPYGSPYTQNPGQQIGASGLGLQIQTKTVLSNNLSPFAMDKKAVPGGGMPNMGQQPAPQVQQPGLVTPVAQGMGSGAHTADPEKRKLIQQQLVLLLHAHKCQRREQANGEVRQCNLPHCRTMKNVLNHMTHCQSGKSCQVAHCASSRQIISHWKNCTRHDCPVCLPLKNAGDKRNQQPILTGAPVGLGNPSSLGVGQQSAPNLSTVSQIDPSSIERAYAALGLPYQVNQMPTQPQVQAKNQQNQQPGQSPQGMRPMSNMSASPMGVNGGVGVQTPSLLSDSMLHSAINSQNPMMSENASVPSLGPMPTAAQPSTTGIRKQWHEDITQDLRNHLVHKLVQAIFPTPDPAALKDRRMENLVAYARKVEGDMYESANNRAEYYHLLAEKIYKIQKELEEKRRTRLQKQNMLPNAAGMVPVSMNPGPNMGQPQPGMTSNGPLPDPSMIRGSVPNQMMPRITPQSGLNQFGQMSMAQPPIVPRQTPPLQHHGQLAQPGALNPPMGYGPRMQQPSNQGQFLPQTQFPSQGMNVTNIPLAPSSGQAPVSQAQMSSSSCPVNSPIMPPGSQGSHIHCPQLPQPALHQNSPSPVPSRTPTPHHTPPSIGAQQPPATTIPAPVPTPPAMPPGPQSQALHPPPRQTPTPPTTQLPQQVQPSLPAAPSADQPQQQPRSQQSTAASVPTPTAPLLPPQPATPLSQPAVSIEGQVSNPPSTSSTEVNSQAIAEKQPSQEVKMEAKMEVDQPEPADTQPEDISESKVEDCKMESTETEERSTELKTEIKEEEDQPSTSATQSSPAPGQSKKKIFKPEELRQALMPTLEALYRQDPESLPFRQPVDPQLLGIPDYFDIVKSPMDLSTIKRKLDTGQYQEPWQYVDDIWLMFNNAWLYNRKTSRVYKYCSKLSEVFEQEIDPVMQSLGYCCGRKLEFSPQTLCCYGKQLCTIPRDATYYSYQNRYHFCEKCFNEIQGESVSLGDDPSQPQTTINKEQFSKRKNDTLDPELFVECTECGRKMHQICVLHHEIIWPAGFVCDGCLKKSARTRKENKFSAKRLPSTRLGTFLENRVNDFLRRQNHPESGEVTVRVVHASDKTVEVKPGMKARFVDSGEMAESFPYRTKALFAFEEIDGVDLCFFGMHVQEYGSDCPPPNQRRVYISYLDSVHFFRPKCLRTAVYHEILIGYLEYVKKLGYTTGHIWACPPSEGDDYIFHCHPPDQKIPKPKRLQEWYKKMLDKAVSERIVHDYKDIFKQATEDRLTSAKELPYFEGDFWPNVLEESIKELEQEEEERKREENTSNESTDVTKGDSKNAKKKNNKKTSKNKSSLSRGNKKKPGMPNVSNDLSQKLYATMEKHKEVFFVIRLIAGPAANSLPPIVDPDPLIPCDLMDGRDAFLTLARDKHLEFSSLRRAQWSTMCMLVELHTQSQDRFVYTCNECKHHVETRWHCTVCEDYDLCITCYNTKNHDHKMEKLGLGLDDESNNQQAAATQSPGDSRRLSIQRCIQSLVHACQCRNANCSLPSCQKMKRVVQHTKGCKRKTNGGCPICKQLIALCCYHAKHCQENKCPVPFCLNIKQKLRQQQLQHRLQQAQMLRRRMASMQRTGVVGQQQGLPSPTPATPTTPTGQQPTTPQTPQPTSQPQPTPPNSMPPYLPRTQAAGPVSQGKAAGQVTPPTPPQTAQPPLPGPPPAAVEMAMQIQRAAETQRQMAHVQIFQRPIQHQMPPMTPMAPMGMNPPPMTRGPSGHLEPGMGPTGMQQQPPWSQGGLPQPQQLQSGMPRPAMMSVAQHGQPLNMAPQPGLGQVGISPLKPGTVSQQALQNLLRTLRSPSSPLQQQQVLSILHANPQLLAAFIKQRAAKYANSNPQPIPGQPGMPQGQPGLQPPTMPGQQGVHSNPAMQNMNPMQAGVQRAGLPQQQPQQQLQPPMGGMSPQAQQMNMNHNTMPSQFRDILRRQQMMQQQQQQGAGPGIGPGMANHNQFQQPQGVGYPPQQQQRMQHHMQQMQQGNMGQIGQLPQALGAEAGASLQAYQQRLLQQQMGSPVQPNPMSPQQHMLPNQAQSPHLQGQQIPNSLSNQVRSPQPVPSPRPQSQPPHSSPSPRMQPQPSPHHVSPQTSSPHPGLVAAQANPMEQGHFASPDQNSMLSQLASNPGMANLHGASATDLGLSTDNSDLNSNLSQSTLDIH", "experiment": "cell-based or functional assay"}, "[2]": {"target": "PCAF histone acetyltransferase (full length, purified recombinant) (UniProt Q92831 1-832, limits assumed)", "sequence (Q92831 whole entry)": "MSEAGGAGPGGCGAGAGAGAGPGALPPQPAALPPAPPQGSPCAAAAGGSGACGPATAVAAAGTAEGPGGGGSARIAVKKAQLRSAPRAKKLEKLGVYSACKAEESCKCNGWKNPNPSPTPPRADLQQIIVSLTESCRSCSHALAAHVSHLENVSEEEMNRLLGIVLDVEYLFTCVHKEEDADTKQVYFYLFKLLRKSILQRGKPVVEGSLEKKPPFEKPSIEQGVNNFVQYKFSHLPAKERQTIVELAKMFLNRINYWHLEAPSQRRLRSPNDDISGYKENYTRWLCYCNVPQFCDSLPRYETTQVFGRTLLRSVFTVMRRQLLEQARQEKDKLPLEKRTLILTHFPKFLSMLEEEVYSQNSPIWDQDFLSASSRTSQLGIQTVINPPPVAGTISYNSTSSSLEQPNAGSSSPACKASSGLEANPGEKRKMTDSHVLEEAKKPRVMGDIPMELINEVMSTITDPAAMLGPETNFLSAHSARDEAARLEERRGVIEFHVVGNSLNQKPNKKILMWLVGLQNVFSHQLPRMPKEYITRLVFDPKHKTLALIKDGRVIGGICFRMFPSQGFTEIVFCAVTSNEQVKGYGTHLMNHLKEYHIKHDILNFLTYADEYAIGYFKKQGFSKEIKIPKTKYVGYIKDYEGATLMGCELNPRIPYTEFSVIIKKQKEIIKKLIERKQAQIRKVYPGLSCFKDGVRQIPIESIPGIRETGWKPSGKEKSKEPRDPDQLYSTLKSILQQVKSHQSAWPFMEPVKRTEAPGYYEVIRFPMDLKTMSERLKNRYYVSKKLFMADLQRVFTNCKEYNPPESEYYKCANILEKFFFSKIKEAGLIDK", "experiment": "cell-based or functional assay"}}}
{"binder": "B1", "values": [{"measurement": "IC50 with p300 (µM), HAT activity inhibition, mixed histones", "setting": "[1]", "value": "> 30", "unit": "µM"}, {"measurement": "IC50 with PCAF (µM), HAT activity inhibition, mixed histones", "setting": "[2]", "value": "> 20", "unit": "µM"}]}
